Data from patent publication US20220143153A1, “COMPOSITIONS AND METHODS FOR TREATING ACNE” (priority 2019, published 2022).

System: PBMCs
Assay: Cytokine secretion from PBMCs stimulated with nuclease-treated live C. acnes (ELISA)
Format: cell-based, human
Details: live C. acnes digested with nuclease at 37° C. for 1 hour, PBMCs stimulated 24 h
Description: FIGS. 3A-3D: PBMCs were stimulated with untreated, heat-killed (HK), Rnase I, or Dnase I treated live CA(HL5PA1), CH (HL110PA4), LPS, or 19 kD (TLR1/2L) for 24 h. Cytokine secretions were measured by ELISA.
Cells purification and culture. Whole blood was obtained from healthy donors who provided written informed consent (UCLA Institutional Review Board). PBMCs were isolated by Ficoll-Paque (Amersham Bioscience) density gradient centrifugation and cultured in RPMI 1640 (Gibco) supplemented with 10% fetal bovine serum (FBS) (Seradigm) at a density of 2.5×10^6/mL in a 24-well flat bottomed plate.
Bacterial treatment. Live bacteria were heat-killed at 95° C. for 10 minutes and cooled on ice before addition of bacteria to cell culture. Live bacteria were digested using RNase I (Promega) or DNase I (Invitrogen) and incubated at 37° C. for 1 hour. Nucleases were inactivated with 0.1% SDS.
Cytokine Quantification. Cell culture supernatants were harvested at 24 hours unless otherwise noted. Cytokines measured by sandwich ELISA using antibody pairs were as follows: IL-18, IL-1β, IFN-β (R&D Duoset), IFN-γ (BD), IL-6, IL-10, TNF-α (Invitrogen).

B1: RNase I: RNase I (Promega), enzyme that catalyzes the hydrolysis of RNA; used to digest live bacteria (protein, UniProt P21338 24-268, looked up)
Ribonuclease I: LALQAKQYGDFDRYVLALSWQTGFCQSQHDRNRNERDECRLQTETTNKADFLTVHGLWPGLPKSVAARGVDERRWMRFGCATRPIPNLPEARASRMCSSPETGLSLETAAKLSEVMPGAGGRSCLERYEYAKHGACFGFDPDAYFGTMVRLNQEIKESEAGKFLADNYGKTVSRRDFDAAFAKSWGKENVKAVKLTCQGNPAYLTEIQISIKADAINAPLSANSFLPQPHPGNCGKTFVIDKAGY
- IFN-γ secretion from PBMCs: eliminated
- IL-6 secretion from PBMCs: eliminated
- IL-10 secretion from PBMCs: eliminated
- TNF-α secretion from PBMCs: eliminated
- IFN-γ secretion from PBMCs (listed as RNase): abrogated
